# Measured values: US20110111494A1 (APOGENIX, published 2011)
# T1: recombinant CD95-ligand (UniProt P48023 142-281, limits assumed)
# T1 sequence (looked up): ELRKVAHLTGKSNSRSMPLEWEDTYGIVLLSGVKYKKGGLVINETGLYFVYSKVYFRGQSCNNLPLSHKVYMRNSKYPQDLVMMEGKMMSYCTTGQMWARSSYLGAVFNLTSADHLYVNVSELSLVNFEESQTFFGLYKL
# Molecular target: T1, recombinant CD95-ligand
# Experiment: cell-based or functional assay
row,Molecule,"EC50 (inhibition of CD95L-induced apoptosis of Jurkat cells, Caspase 3/7 activity, Ac-DEVD-AFC cleavage) [µg/mL]"
1,dimeric CD95R-Fc fusion protein APG101 (from UniProt P25445 26-172),0.595
2,hs95R-AT4-St (CD95R-T4 foldon fusion polypeptide) (receptor) RLSSKSVNAQVTDINSKGLELRKTVTTVETQNLEGLHHDGQFCHKPCPPGERKARDCTVNGDEPDCVPCQEGKEYTDKAHFSSKCRRCRLCDEGHGLEVEINCTRTQNTKCRCKPNFFCNSTVCEHCDPCTKCEHGIIKECTLTSNTKCKEEGSSGSSGSSGSGYIPEAPRDGQAYVRKDGEWVLLSTFLSGPSSSSSSAWSHPQFEK,0.0926
3,hs95R-A69-St (CD95R-RB69 fusion polypeptide) (receptor) RLSSKSVNAQVTDINSKGLELRKTVTTVETQNLEGLHHDGQFCHKPCPPGERKARDCTVNGDEPDCVPCQEGKEYTDKAHFSSKCRRCRLCDEGHGLEVEINCTRTQNTKCRCKPNFFCNSTVCEHCDPCTKCEHGIIKECTLTSNTKCKEEGSSGSSGSSGSGYIEDAPSDGKFYVRKDGAWVELPTASGPSSSSSSAWSHPQFEK,0.0876
4,hs95R-ASPD-St (CD95R-SP-D fusion polypeptide) (receptor) RLSSKSVNAQVTDINSKGLELRKTVTTVETQNLEGLHHDGQFCHKPCPPGERKARDCTVNGDEPDCVPCQEGKEYTDKAHFSSKCRRCRLCDEGHGLEVEINCTRTQNTKCRCKPNFFCNSTVCEHCDPCTKCEHGIIKECTLTSNTKCKEEGSSGSSGSSGSGLPDVASLRQQVEALQGQVQHLQAAFSQYKKVELFPNGQSVGEKIFKTAGFVKPFTEAQLLCTQAGGQLASPRSAAENAALQQLVVAKNEAAFLSMTDSKTEGKFTYPTGESLVYSNWAPGEPNDDGGSEDCVEIFTNGKWNDRACGEKRLVVCEFGGSPSSSSSSAWSHPQFEK,0.573
